This sample holds only a part of the variants without activity.

This series has as its system biotinyl-Phe-oxazolone. Nature of the series: self-aminoacylation, catalytic enhancement (BFO) (fold over background); higher = more active; k-Seq, kA / k0A0; sequences stand for … in GGGAAUGGAUCCACAUCUACGAAUUC…UUCACUGCAGACUUGACGAAGCUG
A digest of the protocol: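 The uncatalyzed rate is the low-activity peak of a bimodal Gaussian fit, and catalytic enhancement is median kA divided by it. The kA values came from pseudo-first-order fits, with 1000 bootstraps, of per-sequence fraction reacted measured by streptavidin capture, triplicate qPCR and Illumina sequencing. Mutagenized RNA pools with a 21-nt variable region (0.43 μM) were reacted with each biotinyl-aminoacyl-oxazolone at 2–1250 μM in 50 μL HEPES/NaCl/KCl/MgCl2/CaCl2 buffer with 5% acetonitrile, pH 6.9–7.0, for 90 minutes at room temperature.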
For “AAGUUUUCUAAUAGUUGCAAG [Fam3.1 aminoacylation ribozyme variant]”, the self-aminoacylation was 2.94.
For the sequence “AAGAUUGCUAACAGUCGCAAG [Fam3.1 aminoacylation ribozyme variant]”, the self-aminoacylation is 2.49.
Regarding “AAGUUUCCUAAUAGUCGCCAG [Fam3.1 aminoacylation ribozyme variant]”, the self-aminoacylation was 2.94.
Turning to “CUACUUCAAACCAUCGGUCGG [Fam1A.1 aminoacylation ribozyme variant]”, the self-aminoacylation is 3.15.
The result for “AUUCACCUAGGUUAUCGUGUG [Fam2.2 aminoacylation ribozyme variant]” reads 2.6; that for “CCAAACUUCGAGCAAUCGGUC [Fam1B.1 aminoacylation ribozyme variant]”, 2.34; that for “AAGUUUGCUAACAGUCGGAAG [Fam3.1 aminoacylation ribozyme variant]”, 6.87.
The result for “CUAGUUCAGACAAUCGGUCUG [Fam1A.1 aminoacylation ribozyme variant]” reads 2.61; that for “GUUACCCUGGUCAUCGAUUGA [Fam2.1 aminoacylation ribozyme variant]”, 2.77; that for “AUGUUUGUUAAUAGUCGCAAG [Fam3.1 aminoacylation ribozyme variant]”, 2.31.
The result for “AAGUUUGCUAAUAGUCAAAAG [Fam3.1 aminoacylation ribozyme variant]” reads 3.26; that for “AUUACCCUGGCCAUCGACUGA [Fam2.1 aminoacylation ribozyme variant]”, 2.83; that for “AAGUUUGCGAAUAGCCGCAAG [Fam3.1 aminoacylation ribozyme variant]”, 4.03.
“AUUCACCUGGGUCAUCGGGUC [Fam2.2 aminoacylation ribozyme variant]”: the self-aminoacylation turned out to be 5.84.
The result for “AUUAGCUUGGUCAUCGAGUGA [Fam2.1 aminoacylation ribozyme variant]” reads 2.2.
With “CAGUUUGCUAAUAGUCGCAAC [Fam3.1 aminoacylation ribozyme variant]” the figure was 2.78; with “GAGUUUGCUGAUAGUCGCAAG [Fam3.1 aminoacylation ribozyme variant]”, 3.71.
The result for “AAGUUUGAUAAUAGUCGCAAU [Fam3.1 aminoacylation ribozyme variant]” reads 2.12; that for “CUACUCCAAUCAAUCGGUCUG [Fam1A.1 aminoacylation ribozyme variant]”, 2.36.
With “CUAGUUCAAACAUUCGGUCUG [Fam1A.1 aminoacylation ribozyme variant]”, the self-aminoacylation came to 6.01.
In the case of “AAGAUUGCUAAUAGUCGCAAC [Fam3.1 aminoacylation ribozyme variant]”, the self-aminoacylation was found to be 2.08.
The result for “CUACUUCAAACAAGCGGUCGG [Fam1A.1 aminoacylation ribozyme variant]” reads 3.68; that for “AAGUUUUCUAAUAGUCGCUAG [Fam3.1 aminoacylation ribozyme variant]”, 2.43.
Take “AUUCACCUAGGUCGUCGGGUU [Fam2.2 aminoacylation ribozyme variant]”: the self-aminoacylation was 3.1.
With “AUUGCCCUGGUCGUCGAGUGA [Fam2.1 aminoacylation ribozyme variant]” the figure was 8.62; with “AAUUUUGCUAAUAAUCGCAAG [Fam3.1 aminoacylation ribozyme variant]”, 2.03; with “AAGUGUGCUAAUAGUGGCAAG [Fam3.1 aminoacylation ribozyme variant]”, 2.86.
Consider “AUUACCCUGGUCAUCAAGUGU [Fam2.1 aminoacylation ribozyme variant]”, for which the self-aminoacylation was determined as 2.34.
The result for “CUGCUUCAAACAAUCGUUCUG [Fam1A.1 aminoacylation ribozyme variant]” reads 2.08; that for “AAGUUUUCUAAUAGUCGUAAG [Fam3.1 aminoacylation ribozyme variant]”, 2.29.
Consider “AAGUUUGCGAAUAGGCGCAAG [Fam3.1 aminoacylation ribozyme variant]”, for which the self-aminoacylation was found to be 9.76.
Take “AAAUUUGCUAAUAGUCGGAAG [Fam3.1 aminoacylation ribozyme variant]”: the self-aminoacylation is 2.57.
With “AUUCACCUGGGUCAUCGUGUG [Fam2.2 aminoacylation ribozyme variant]” the figure was 4.81; with “AUGUUUGCGAAUAGUCGCAAG [Fam3.1 aminoacylation ribozyme variant]”, 2.47; with “AAGUUUGUUCAUAGUCGCAAG [Fam3.1 aminoacylation ribozyme variant]”, 2.01.
“AAGUUUGCUAAUGGUCGCAAU [Fam3.1 aminoacylation ribozyme variant]”: the self-aminoacylation was 3.15.
The result for “AAUCACCUAGGUCAUCGUGUG [Fam2.2 aminoacylation ribozyme variant]” reads 5.37; that for “AAGUUAGCUAAUAGUCGCUAG [Fam3.1 aminoacylation ribozyme variant]”, 2.36; that for “AAGUUUGGUAAUAGUCGCGAG [Fam3.1 aminoacylation ribozyme variant]”, 2.51.
With “AAGUUAGUUAAUAGUCGCAAG [Fam3.1 aminoacylation ribozyme variant]” the figure was 2.7; with “AAGAUUGCUGAUAGUCGCAAG [Fam3.1 aminoacylation ribozyme variant]”, 2.57.
On to “AUUCACCAAGGUCAUCGGGUC [Fam2.2 aminoacylation ribozyme variant]”, for which the self-aminoacylation is 3.27.
With “CAGUUUGCUAAUAGUCGCAGG [Fam3.1 aminoacylation ribozyme variant]”, the self-aminoacylation stood at 3.45.
The result for “AUUUACCUAGGUCAUCGGCUG [Fam2.2 aminoacylation ribozyme variant]” reads 2.16; that for “CAGUUUUCUAAUAGUCGCAAG [Fam3.1 aminoacylation ribozyme variant]”, 2.91; that for “AAGUUUUCUAAUAGUCGAAAG [Fam3.1 aminoacylation ribozyme variant]”, 2.
As to “UUACUUCAAACAAGCGGUCUG [Fam1A.1 aminoacylation ribozyme variant]”, the self-aminoacylation stood at 6.3.
With “ACGUUUGCUAAUAGUCCCAAG [Fam3.1 aminoacylation ribozyme variant]” the figure was 2.
With “AAGUCUGCUAAUAGUCGCAAA [Fam3.1 aminoacylation ribozyme variant]” the figure was 2.14; with “AGUACCCUGGUCAUCGAGUGC [Fam2.1 aminoacylation ribozyme variant]”, 2.36.
On to “CAGUUUGCUAAUAGUCCCAAG [Fam3.1 aminoacylation ribozyme variant]”, for which the self-aminoacylation is 2.32.
With “AAGUUUCCUUAUAGUCGCAAG [Fam3.1 aminoacylation ribozyme variant]” the figure was 2.75; with “AAGUUUGCUAAUAGCCGCAAU [Fam3.1 aminoacylation ribozyme variant]”, 2.22; with “AAGUUGGCUAAUAGUCCCAAG [Fam3.1 aminoacylation ribozyme variant]”, 2.06.

Values taken from the supplement of paper PMC9233669.
